In the nanobody polyreactivity screen of Harvey et al. (2022):

Assay: yeast display, Sf9 membrane polyspecificity reagent, FACS + sequencing; frameworks hold sequencing errors
Summary of the method: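 Galactose induction of a Saccharomyces cerevisiae BJ5465 synthetic nanobody display library ran 36–48 hours. The cells were then stained for 1 hour at 4 °C with 10% biotinylated, detergent-solubilized Sf9 membrane reagent, pulled down on streptavidin microbeads and FACS-sorted into low and high (top ~1%) gates on expression and reagent-binding fluorescence. Labels for polyreactivity follow the gate of origin.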

Row | Sequence | polyreactivity (PSR sort gate)
1 | QVQLVESGGGLVQAGGSLRLSCAPSGIIAKHNAMGWYRQAPGKERELVAAITSGSITNYADSVKGRFTISRDNAKNTLYLQMNSLKPEDTAVYYCAKRVDAYGWWGRRSGVLSDYWGQGTQVTVSS | low polyreactivity
2 | QVQLVESGGGLVQAGGSLRLSCAASGSIFVYNAMGWYRQAPVKERELVAVITLRSGSTNYADSVKGRFTISRDNEKNTVYLQMNSLKPEDTAVYYCAADDTYHDYQRDTDDDYWGQGTQVTVSS | low polyreactivity
3 | QVQLVESGEGLVQAGGSLRLSCAASGRTFDRNTMGWYTQAPGKERELVAAISSSGGSTYYADSVKGRFTISRDNAKNTVYLQMNSLKPEDTAVYYCAVRSRQYFRYGYDYWGQGTQVTVSS | high polyreactivity
4 | QVQLVESGGGLVQAGGSRRLSCDASGRTFGYYAMGWYRQAPGKERELVAAISSSGGSTYYADSVKRRFTISRDNAKNTVYLQMNRLKPEDTAVYYCAADTSDTPDYYYWGPGTQVTVSS | low polyreactivity
5 | QVQLVESGGGLVQAGGSLRLSCAASGSIFTNYAMGWYRQAPGKERELVAAISVGGGRTYYADSVKGRFTISRDNAKNTVYLQMNSLKPEDTAVYYCAASRRTRSMNYWGQGTQVTVSS | high polyreactivity
6 | QVQLVESGGGLFQTGGSLRLSRAASGRTFRYYVMGWYRQAPWKESELVAAISWSGGRTNYADSVKGRFTISRDNAKNTVYLQMNCLKPEDTSVYYCIAAGPALRRYDYWGQGTQVTVSS | high polyreactivity
7 | QFQLVESGGGLVQAGGSLRLSCAASGFIFGGNVMGWYRQAPGKERELVAAITSSATTYYADSVKGRFTISRDNAKNTVYLQMNSLKREDTAVYYCAADTWTIVDYGYWGQGTQVTVSS | low polyreactivity
8 | QVQLVESGGGLVQAGGSLRLSCAPSGGTFVTYAMGWYIQAPGKERELVAAITTGGSTYYADSVKGRFTISRDNAKNTVYLQMNSLKPEDTAVYYCAAVYTGSGKRYYKGYYWGQGTQVTVSS | low polyreactivity
9 | QGQLVESGGGLVQAGGSLRLSCAASGFNFRRYAMGWYRHAPGKERELVAVITSGGSTYYADSVKGRFTISRDYAKNTVYLQMNSLKPEDTAVYYCASRYYWYSQEYVLSSWWGDYWGLGTQVTVSS | high polyreactivity
10 | QVQHVESGGGLVQAGGSLSLRCAASGSTLPYYAMGGYRPAPGKEREFVAAISSSGGSTYYADSVKGRFTISRDNAKYTVYLQMNSLKPEDTAVYYCNAVLYARQRDRWARYDYWGQGTQVTVSS | high polyreactivity
11 | QVQLVESGGGLVQAGGSLRLSCAASGRIFGKYAMGWYRQAPGKERELVAAITRRGGSTYYADSVKGRFTISRDNAKNTVYLQMNSLKPEDTAVYYCNAALTGYRVSPTRHRYDYWGQGTQVTVSS | high polyreactivity
12 | QVQLVESGGGLVQAGGSLRLSCAASGSIFEYYAMGWYREAPGKERELVAAITSSGASTYYADSVKGHFTISRDNAKNSVYLQMNSLKPEDTAVYYCAKEVIRYSQYIFDYWGQGTQVTVSS | low polyreactivity
13 | QVQLVESGGGLVQAGGSLRLSCAASGFVWNAMGWYRQAPGKERELVAAINWRGGSTNYADSVKGRFTISRDNAKNTVYLQMNSLKPEDTAVYYCAAYFFHYHFYQAAYDYWGQGTQVTVSS | low polyreactivity
14 | QVQLVESGGGLVQAGGSHRLSCAASGRILPGYAMGWYRPAPGKERELVAAITTGGSTYYADSVKGRFTISRDNAKNTVYLQMNSLKPEDTAVYYCAKLYSYVGWGGQFDYWGQGTQVTVSS | low polyreactivity
15 | QVQLQESGGGLVEAGGSLRLSCAASGTISYAPHMGWYRQAPGKERELVAGITIGGTTNYADSVKGRFTISRDNAKNTVYLQMISLSPGDTALYYCAAHYDQYTPFYYWGQGSQVTVSS | low polyreactivity
16 | QVQLVESGGGLVQAGGSLRLSCAASGRTFDRYAMGWYRQAPGKERELVAAISSGGSTYYADSVKGRFTISRDNAKNTVYLQMNSLKPEDTAVYYCAAGESGSFFIYYYWGQGTQVTVSS | low polyreactivity
17 | QVQLVESGGGLVQAGGSLRLSCAASGSTFRFYAMGWYRQAPGKERELVAAINGSGGSTYYADSVKGRFTISRDIAKNSVYLQMNSLKPEDTAVYYCAVLYRYGYDYWGQGTQVTVSS | low polyreactivity
